Assay results reported in patent publication US20230034906A1 (TRINOMAB BIOTECH, published 2023).

Experiments:
[1] = molecular target: gB glycoprotein of HCMV standard strain Towne, on the virus (human cytomegalovirus, strain Towne, UniProt P13201 23-907); experiment: cell-based or functional assay
[2] = molecular target: T1, homologous sequence of gB glycoprotein of 56 virus strains (gB_Con. Strain) (human cytomegalovirus (homologous …, UniProt P06473 25-699)); experiment: ELISA, HEK293 culture supernatant on gB
T1 construct: C-terminal tags are part of the entry
T1 chain: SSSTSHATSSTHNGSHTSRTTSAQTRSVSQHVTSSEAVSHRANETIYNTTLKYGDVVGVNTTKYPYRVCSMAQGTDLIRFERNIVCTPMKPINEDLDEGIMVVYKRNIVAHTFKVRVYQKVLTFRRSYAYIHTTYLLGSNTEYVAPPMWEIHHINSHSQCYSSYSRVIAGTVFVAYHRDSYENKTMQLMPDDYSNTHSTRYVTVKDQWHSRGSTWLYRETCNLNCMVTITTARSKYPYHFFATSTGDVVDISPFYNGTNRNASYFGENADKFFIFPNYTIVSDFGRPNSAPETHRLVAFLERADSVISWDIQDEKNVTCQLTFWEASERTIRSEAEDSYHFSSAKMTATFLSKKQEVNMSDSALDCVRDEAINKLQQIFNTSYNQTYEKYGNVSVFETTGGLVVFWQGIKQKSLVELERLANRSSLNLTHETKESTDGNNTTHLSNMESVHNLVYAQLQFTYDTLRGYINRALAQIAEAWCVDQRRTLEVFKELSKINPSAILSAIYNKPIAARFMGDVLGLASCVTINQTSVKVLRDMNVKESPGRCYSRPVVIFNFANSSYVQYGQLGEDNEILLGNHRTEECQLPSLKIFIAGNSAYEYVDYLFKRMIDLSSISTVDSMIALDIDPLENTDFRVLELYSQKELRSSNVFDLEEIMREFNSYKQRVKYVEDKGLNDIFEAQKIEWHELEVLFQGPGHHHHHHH

[3] = molecular target: T2, HCMV gB glycoprotein of standard strain Towne (gB_Towne strain) (human cytomegalovirus, strain Towne, UniProt F5HB53 25-700); experiment: SPR (Biacore), antibody captured by anti-human IgG (Fc) on CM5 chip, gB in solution
T2 construct: also called antigen protein gB0049

[4] = molecular target: T3, gB_Towne protein with N383 mutated into glutamine (human cytomegalovirus, strain Towne, UniProt F5HB53 25-700); experiment: indirect ELISA, antibody titrated on gB glycoprotein mutant
T3 chain: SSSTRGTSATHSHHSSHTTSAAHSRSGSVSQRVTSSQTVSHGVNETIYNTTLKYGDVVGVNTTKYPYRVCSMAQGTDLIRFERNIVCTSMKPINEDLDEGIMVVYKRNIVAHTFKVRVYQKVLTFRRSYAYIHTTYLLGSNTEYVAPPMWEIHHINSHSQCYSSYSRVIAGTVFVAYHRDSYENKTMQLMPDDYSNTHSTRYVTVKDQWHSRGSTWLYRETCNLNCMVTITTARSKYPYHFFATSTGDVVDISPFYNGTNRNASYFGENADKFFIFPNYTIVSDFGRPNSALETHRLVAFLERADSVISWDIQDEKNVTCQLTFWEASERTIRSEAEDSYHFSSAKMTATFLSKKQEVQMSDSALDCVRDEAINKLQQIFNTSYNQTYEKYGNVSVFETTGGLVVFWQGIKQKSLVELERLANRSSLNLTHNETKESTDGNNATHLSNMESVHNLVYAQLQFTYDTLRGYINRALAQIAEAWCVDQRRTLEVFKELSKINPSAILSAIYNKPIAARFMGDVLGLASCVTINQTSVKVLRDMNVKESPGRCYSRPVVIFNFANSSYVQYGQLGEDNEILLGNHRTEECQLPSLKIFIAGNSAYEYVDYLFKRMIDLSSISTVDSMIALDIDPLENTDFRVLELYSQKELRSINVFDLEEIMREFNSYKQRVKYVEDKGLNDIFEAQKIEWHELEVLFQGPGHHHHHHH

Chain of gB glycoprotein of HCMV standard strain Towne, on the virus (P13201 23-907 limits assumed): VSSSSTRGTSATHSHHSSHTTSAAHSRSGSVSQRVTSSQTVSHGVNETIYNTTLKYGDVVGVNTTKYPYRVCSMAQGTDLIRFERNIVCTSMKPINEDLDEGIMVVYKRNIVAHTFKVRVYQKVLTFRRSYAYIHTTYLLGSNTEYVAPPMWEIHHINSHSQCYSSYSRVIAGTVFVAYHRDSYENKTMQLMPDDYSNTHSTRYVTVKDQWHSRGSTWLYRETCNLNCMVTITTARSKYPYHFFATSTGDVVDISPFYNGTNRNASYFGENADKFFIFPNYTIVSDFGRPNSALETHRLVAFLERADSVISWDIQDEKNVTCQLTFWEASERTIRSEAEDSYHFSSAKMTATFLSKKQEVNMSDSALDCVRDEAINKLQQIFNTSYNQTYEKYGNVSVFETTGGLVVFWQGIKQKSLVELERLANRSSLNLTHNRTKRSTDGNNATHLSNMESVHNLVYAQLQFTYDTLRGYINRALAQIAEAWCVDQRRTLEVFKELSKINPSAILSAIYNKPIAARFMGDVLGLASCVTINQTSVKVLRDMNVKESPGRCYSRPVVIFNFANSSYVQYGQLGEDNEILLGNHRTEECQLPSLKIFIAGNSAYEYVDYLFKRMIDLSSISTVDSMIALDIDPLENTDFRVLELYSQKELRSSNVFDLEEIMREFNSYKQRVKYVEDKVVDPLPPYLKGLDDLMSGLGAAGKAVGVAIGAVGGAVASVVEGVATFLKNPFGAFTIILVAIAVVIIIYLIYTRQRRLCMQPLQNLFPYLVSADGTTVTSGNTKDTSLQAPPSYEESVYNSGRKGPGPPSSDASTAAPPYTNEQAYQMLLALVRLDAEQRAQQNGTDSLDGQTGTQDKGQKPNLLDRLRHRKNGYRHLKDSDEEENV

Binder	EC50 of neutralizing Towne virus infection in primary HUVEC cells [1]	binding result [2]	Kd [3]	binding result [4]
TRN1020 (antibody, V domains shown, Fully human antibody; lambda light chain) VH: EVQLVESGGGLAQPGGSLRLSCEASGFSFSTYAMSWVRQAPGKGLEWVAAVSGRGTSTFYLDSVKGRFTVSRDNSRTTVFLQMNSLKVEDTAFYYCAKDSYVGGSFDWLPRPDYFDHWGRGVLVTVSS VL: QSVLTQPPSLSATPGQTVTISCSGSNSNIGKNYVSWYQQLPGAAPKLLLYNNNLRPSGIPARFSGSKSGTSATLGITGLQAGDEATYSCATWDKTLNFWVFGGGTKVTVLG	0.041 µg/mL	binds	0.6 nM	–
TRN1017 (antibody, V domains shown, lambda light chain; expressed in HEK293 cells) VH: QVLLVQSGGGLVQPGGSLRLACETSGFTFRHYWMHWVRQAPGKGLVWLSSIHGSGTTTRYADSVKGRFTISRDNAKNILFLQINSPRPEDTATYYCVRDDYTSGYNWGQGAFVTVSS VL: QSALTQPASVSGSRGQSITIPCTGSRSDVGGYNYVSWYQQRPGKAPKLILYDVSHRPSGISDRFSGSKLGDTASLTISGLRDEDEADYYCSSYTTKSTLYVFGTGTTVSVLG	0.089 µg/mL	–	–	binds
TRN1018 (antibody, V domains shown, Fully human antibody; kappa light chain) VH: QVQLVQSGGGVVQPGRSLRLSCAASGFTFSNHGIHWVRQAPGKGLEWVAVISSDGTDTRDADSVRGRFTISRDNSRNTVYLDMNSLRAEDTAVYYCARDGRCGDERCYSGLPDVWGRGTRVSVSS VL: EIVLTQSPATLSLSPGERATLSCRASQSVGGYLAWYQQKVGQAPRLLIYDASNRATGIPARFSGSGSGTDFTLTISSLEPEDFAVYYCQQRSNWPPLTFGGGTKVEIKR	–	binds	27.9 nM	–
